Results on five molecules are retold here after patent publication US12679878B2, “CRF2 receptor agonists and their use in therapy” (SANOFI, priority 2020, dated 2026).

This experiment has as its target T1, CRF1R receptor (anti-target) (UniProt P34998 24-415, limits assumed).
T1 sequence (looked up): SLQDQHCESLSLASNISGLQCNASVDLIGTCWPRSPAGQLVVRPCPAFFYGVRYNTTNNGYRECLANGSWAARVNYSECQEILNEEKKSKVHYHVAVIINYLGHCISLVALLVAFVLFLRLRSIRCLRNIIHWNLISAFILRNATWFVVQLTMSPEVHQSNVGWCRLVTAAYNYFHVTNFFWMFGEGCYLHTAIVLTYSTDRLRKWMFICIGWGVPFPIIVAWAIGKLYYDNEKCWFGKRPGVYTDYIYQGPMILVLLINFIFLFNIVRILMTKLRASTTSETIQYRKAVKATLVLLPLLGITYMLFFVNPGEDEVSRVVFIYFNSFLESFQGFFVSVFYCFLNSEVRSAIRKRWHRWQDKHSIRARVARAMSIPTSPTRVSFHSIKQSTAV
In words: cell-based or functional assay.

Starred links: 1 amine or outer side, 2 acyl side, 3 side chain; linkers in the order of their positions; H or OH if unused. Non-standard residues stand in square brackets, D forms with d. Groups on a side chain read outwards from the residue. No end group written: not given here. *: point of attachment. C18 diacid = O=C(O)CCCCCCCCCCCCCCCCC(=O)*; γGlu = O=C(O)[C@H](CCC(=O)[*:2])N[*:1]; AEEA = NCCOCCOCC(=O)O; Aib = CC(C)(N)C(=O)O

B1: peptide of SEQ ID NO: 102 (peptide)
peptide: IVLSLD[dV]PIKLK([AEEA-AEEA-γGlu-C18 diacid])QILLKQERQKKQREQAETNKQILAQV-NH2
modifications: N-terminus assumed
SMILES: CC[C@H](C)[C@H](N)C(=O)N[C@H](C(=O)N[C@@H](CC(C)C)C(=O)N[C@@H](CO)C(=O)N[C@@H](CC(C)C)C(=O)N[C@@H](CC(=O)O)C(=O)N[C@@H](C(=O)N1CCC[C@H]1C(=O)N[C@H](C(=O)N[C@@H](CCCCN)C(=O)N[C@@H](CC(C)C)C(=O)N[C@@H](CCCCNC(=O)COCCOCCNC(=O)COCCOCCNC(=O)CC[C@H](NC(=O)CCCCCCCCCCCCCCCCC(=O)O)C(=O)O)C(=O)N[C@@H](CCC(N)=O)C(=O)N[C@H](C(=O)N[C@@H](CC(C)C)C(=O)N[C@@H](CC(C)C)C(=O)N[C@@H](CCCCN)C(=O)N[C@@H](CCC(N)=O)C(=O)N[C@@H](CCC(=O)O)C(=O)N[C@@H](CCCNC(=N)N)C(=O)N[C@@H](CCC(N)=O)C(=O)N[C@@H](CCCCN)C(=O)N[C@@H](CCCCN)C(=O)N[C@@H](CCC(N)=O)C(=O)N[C@@H](CCCNC(=N)N)C(=O)N[C@@H](CCC(=O)O)C(=O)N[C@@H](CCC(N)=O)C(=O)N[C@@H](C)C(=O)N[C@@H](CCC(=O)O)C(=O)N[C@H](C(=O)N[C@@H](CC(N)=O)C(=O)N[C@@H](CCCCN)C(=O)N[C@@H](CCC(N)=O)C(=O)N[C@H](C(=O)N[C@@H](CC(C)C)C(=O)N[C@@H](C)C(=O)N[C@@H](CCC(N)=O)C(=O)N[C@H](C(N)=O)C(C)C)[C@@H](C)CC)[C@@H](C)O)[C@@H](C)CC)[C@@H](C)CC)C(C)C)C(C)C
In the case of B1, the “EC50 [nM] 0% HSA (cAMP, HTRF)” value was more than 100 nM and the “Emax (%) (100% = Sauvagine at 100 nM)” value was found to be 9%.

B2: peptide of SEQ ID NO: 104 (peptide)
peptide: IVLSLDVPIKLK([AEEA-AEEA-γGlu-C18 diacid])QILLKQERQK[Aib]QREQAETNKQILAQV-NH2
modifications: N-terminus assumed
SMILES: CC[C@H](C)[C@H](N)C(=O)N[C@H](C(=O)N[C@@H](CC(C)C)C(=O)N[C@@H](CO)C(=O)N[C@@H](CC(C)C)C(=O)N[C@@H](CC(=O)O)C(=O)N[C@H](C(=O)N1CCC[C@H]1C(=O)N[C@H](C(=O)N[C@@H](CCCCN)C(=O)N[C@@H](CC(C)C)C(=O)N[C@@H](CCCCNC(=O)COCCOCCNC(=O)COCCOCCNC(=O)CC[C@H](NC(=O)CCCCCCCCCCCCCCCCC(=O)O)C(=O)O)C(=O)N[C@@H](CCC(N)=O)C(=O)N[C@H](C(=O)N[C@@H](CC(C)C)C(=O)N[C@@H](CC(C)C)C(=O)N[C@@H](CCCCN)C(=O)N[C@@H](CCC(N)=O)C(=O)N[C@@H](CCC(=O)O)C(=O)N[C@@H](CCCNC(=N)N)C(=O)N[C@@H](CCC(N)=O)C(=O)N[C@@H](CCCCN)C(=O)NC(C)(C)C(=O)N[C@@H](CCC(N)=O)C(=O)N[C@@H](CCCNC(=N)N)C(=O)N[C@@H](CCC(=O)O)C(=O)N[C@@H](CCC(N)=O)C(=O)N[C@@H](C)C(=O)N[C@@H](CCC(=O)O)C(=O)N[C@H](C(=O)N[C@@H](CC(N)=O)C(=O)N[C@@H](CCCCN)C(=O)N[C@@H](CCC(N)=O)C(=O)N[C@H](C(=O)N[C@@H](CC(C)C)C(=O)N[C@@H](C)C(=O)N[C@@H](CCC(N)=O)C(=O)N[C@H](C(N)=O)C(C)C)[C@@H](C)CC)[C@@H](C)O)[C@@H](C)CC)[C@@H](C)CC)C(C)C)C(C)C
On to B2, for which the “EC50 [nM] 0% HSA (cAMP, HTRF)” value was more than 100 nM and the “Emax (%) (100% = Sauvagine at 100 nM)” value was determined as 3.7%.

B3: peptide of SEQ ID NO: 96 (peptide)
peptide: IVLSLDVPIKLK([AEEA-AEEA-γGlu-C18 diacid])QILLKQERQKKEREQAETNKQILAQV-NH2
modifications: N-terminus assumed
SMILES: CC[C@H](C)[C@H](N)C(=O)N[C@H](C(=O)N[C@@H](CC(C)C)C(=O)N[C@@H](CO)C(=O)N[C@@H](CC(C)C)C(=O)N[C@@H](CC(=O)O)C(=O)N[C@H](C(=O)N1CCC[C@H]1C(=O)N[C@H](C(=O)N[C@@H](CCCCN)C(=O)N[C@@H](CC(C)C)C(=O)N[C@@H](CCCCNC(=O)COCCOCCNC(=O)COCCOCCNC(=O)CC[C@H](NC(=O)CCCCCCCCCCCCCCCCC(=O)O)C(=O)O)C(=O)N[C@@H](CCC(N)=O)C(=O)N[C@H](C(=O)N[C@@H](CC(C)C)C(=O)N[C@@H](CC(C)C)C(=O)N[C@@H](CCCCN)C(=O)N[C@@H](CCC(N)=O)C(=O)N[C@@H](CCC(=O)O)C(=O)N[C@@H](CCCNC(=N)N)C(=O)N[C@@H](CCC(N)=O)C(=O)N[C@@H](CCCCN)C(=O)N[C@@H](CCCCN)C(=O)N[C@@H](CCC(=O)O)C(=O)N[C@@H](CCCNC(=N)N)C(=O)N[C@@H](CCC(=O)O)C(=O)N[C@@H](CCC(N)=O)C(=O)N[C@@H](C)C(=O)N[C@@H](CCC(=O)O)C(=O)N[C@H](C(=O)N[C@@H](CC(N)=O)C(=O)N[C@@H](CCCCN)C(=O)N[C@@H](CCC(N)=O)C(=O)N[C@H](C(=O)N[C@@H](CC(C)C)C(=O)N[C@@H](C)C(=O)N[C@@H](CCC(N)=O)C(=O)N[C@H](C(N)=O)C(C)C)[C@@H](C)CC)[C@@H](C)O)[C@@H](C)CC)[C@@H](C)CC)C(C)C)C(C)C
Regarding B3, the “EC50 [nM] 0% HSA (cAMP, HTRF)” value is more than 100 nM and the “Emax (%) (100% = Sauvagine at 100 nM)” value was found to be 2.3%.

B4: peptide of SEQ ID NO: 105 (peptide)
peptide: IVLSLDVPIKLK([AEEA-AEEA-γGlu-C18 diacid])QILLEQERQK[Aib]QRQQAETNKQILAQV-NH2
modifications: N-terminus assumed
SMILES: CC[C@H](C)[C@H](N)C(=O)N[C@H](C(=O)N[C@@H](CC(C)C)C(=O)N[C@@H](CO)C(=O)N[C@@H](CC(C)C)C(=O)N[C@@H](CC(=O)O)C(=O)N[C@H](C(=O)N1CCC[C@H]1C(=O)N[C@H](C(=O)N[C@@H](CCCCN)C(=O)N[C@@H](CC(C)C)C(=O)N[C@@H](CCCCNC(=O)COCCOCCNC(=O)COCCOCCNC(=O)CC[C@H](NC(=O)CCCCCCCCCCCCCCCCC(=O)O)C(=O)O)C(=O)N[C@@H](CCC(N)=O)C(=O)N[C@H](C(=O)N[C@@H](CC(C)C)C(=O)N[C@@H](CC(C)C)C(=O)N[C@@H](CCC(=O)O)C(=O)N[C@@H](CCC(N)=O)C(=O)N[C@@H](CCC(=O)O)C(=O)N[C@@H](CCCNC(=N)N)C(=O)N[C@@H](CCC(N)=O)C(=O)N[C@@H](CCCCN)C(=O)NC(C)(C)C(=O)N[C@@H](CCC(N)=O)C(=O)N[C@@H](CCCNC(=N)N)C(=O)N[C@@H](CCC(N)=O)C(=O)N[C@@H](CCC(N)=O)C(=O)N[C@@H](C)C(=O)N[C@@H](CCC(=O)O)C(=O)N[C@H](C(=O)N[C@@H](CC(N)=O)C(=O)N[C@@H](CCCCN)C(=O)N[C@@H](CCC(N)=O)C(=O)N[C@H](C(=O)N[C@@H](CC(C)C)C(=O)N[C@@H](C)C(=O)N[C@@H](CCC(N)=O)C(=O)N[C@H](C(N)=O)C(C)C)[C@@H](C)CC)[C@@H](C)O)[C@@H](C)CC)[C@@H](C)CC)C(C)C)C(C)C
As to B4, the “EC50 [nM] 0% HSA (cAMP, HTRF)” value is more than 100 nM and the “Emax (%) (100% = Sauvagine at 100 nM)” value came out at 15.4%.

B5: peptide of SEQ ID NO: 103 (peptide)
peptide: IVLSLDVPIKLK([AEEA-AEEA-γGlu-C18 diacid])QILLEQERQK[Aib]QREQAETNKQILAQV-NH2
modifications: N-terminus assumed
SMILES: CC[C@H](C)[C@H](N)C(=O)N[C@H](C(=O)N[C@@H](CC(C)C)C(=O)N[C@@H](CO)C(=O)N[C@@H](CC(C)C)C(=O)N[C@@H](CC(=O)O)C(=O)N[C@H](C(=O)N1CCC[C@H]1C(=O)N[C@H](C(=O)N[C@@H](CCCCN)C(=O)N[C@@H](CC(C)C)C(=O)N[C@@H](CCCCNC(=O)COCCOCCNC(=O)COCCOCCNC(=O)CC[C@H](NC(=O)CCCCCCCCCCCCCCCCC(=O)O)C(=O)O)C(=O)N[C@@H](CCC(N)=O)C(=O)N[C@H](C(=O)N[C@@H](CC(C)C)C(=O)N[C@@H](CC(C)C)C(=O)N[C@@H](CCC(=O)O)C(=O)N[C@@H](CCC(N)=O)C(=O)N[C@@H](CCC(=O)O)C(=O)N[C@@H](CCCNC(=N)N)C(=O)N[C@@H](CCC(N)=O)C(=O)N[C@@H](CCCCN)C(=O)NC(C)(C)C(=O)N[C@@H](CCC(N)=O)C(=O)N[C@@H](CCCNC(=N)N)C(=O)N[C@@H](CCC(=O)O)C(=O)N[C@@H](CCC(N)=O)C(=O)N[C@@H](C)C(=O)N[C@@H](CCC(=O)O)C(=O)N[C@H](C(=O)N[C@@H](CC(N)=O)C(=O)N[C@@H](CCCCN)C(=O)N[C@@H](CCC(N)=O)C(=O)N[C@H](C(=O)N[C@@H](CC(C)C)C(=O)N[C@@H](C)C(=O)N[C@@H](CCC(N)=O)C(=O)N[C@H](C(N)=O)C(C)C)[C@@H](C)CC)[C@@H](C)O)[C@@H](C)CC)[C@@H](C)CC)C(C)C)C(C)C
For the molecule B5, the “EC50 [nM] 0% HSA (cAMP, HTRF)” value is more than 100 nM and the “Emax (%) (100% = Sauvagine at 100 nM)” value came to 14%.
